Experimental findings from patent publication US20200247901A1 (US Dept. of Health and Human Services, published 2020) are described below.

To fix the notation:
B1: 15B6 anti-mesothelin antibody (IgG2b) (antibody, V domains shown)
VH: EVQLQQSGPVLVKPGASVKISCKASGYSFTGYYMHWVRQSLVKRLEWIGRINPYTGVPSYKHNFKDKASLTVDKSSSTAYMELHSLTSEDSAVYYCARELGGYWGQGTTLTVSS
VL: QAVVTQESALTTSPGETVTLTCRSSTGAVTTGNYPNWVQEKPDHLFTGLIAGTNNRAPGVPARFSGSLIGDKAALTITGAQTEDEAIYFCALWFSSHWVFGGGTKLTVL
notes: Mouse hybridoma monoclonal antibody, IgG 2b; also called Mab 15B6; antibody 15B6
B2: 2B4 anti-mesothelin antibody (IgG2a) (antibody, V domains shown)
VH: EVQLQQSGPELVKPGASVKISCKASGYPFTGHYMHWVKQGHVKSLEWIGRINPYTGAINYNQNFKDKASLSVEKSSSTAYMGLHSLTSEDSAVYYCVRDLGGGYWGQGTTLTVSS
VL: QAVVTQESALTTSPGETVTLTCRSSTGAVTTSNYANWVQEKPDHLFTGLIAGTNNRAPGVPARFSGSLIGDKAALTITGAQPEDEAIFFCALWYSSHWVFGGGTKLTVL
notes: Mouse hybridoma monoclonal antibody, IgG 2a; also called antibody 2B4
B3: 7B5 anti-mesothelin antibody (IgG1) (antibody, V domains shown)
VH: EVQLQQSGPELVKPGTSVKISCKASGYPFTGHYMHWVKQGHVKSLEWIGRINPYTGAINYNQNFKDKASLTVEKSSSTAYMGLHSLTSEDSAVYYCVRDLGGGYWGQGTTLTVSS
VL: QAVVTQESALTTSPGETVTLTCRSSTGAVTTSNYANWVQEKPDHLFTGLIAGTNNRAPGVPARFSGSLIGDKAALTITGAQPEDEAMFFCALWFGSHWVFGGGTKLTVL
notes: Mouse hybridoma monoclonal antibody, IgG 1; also called antibody 7B5

One test has as its target T1, Fc-mesothelin 296-599 (human, UniProt Q13421 296-599).
T1 construct: The order of the parts follows the printed name and is not otherwise stated; not shown: Fc part
Kind of test: ELISA on Fc-mesothelin 296-599.

For test [1], the target named is T2, mesothelin (296-585) attached to mouse transferrin receptor (TFR) transmembrane domain, on AB1-L9 cells (human; mouse, UniProt Q13421 296-585).
T2 construct: The order of the parts is as printed; also called AB1-L9 cell line
T2 sequence (Q13421 other isoform, or with tags, fused parts or gaps): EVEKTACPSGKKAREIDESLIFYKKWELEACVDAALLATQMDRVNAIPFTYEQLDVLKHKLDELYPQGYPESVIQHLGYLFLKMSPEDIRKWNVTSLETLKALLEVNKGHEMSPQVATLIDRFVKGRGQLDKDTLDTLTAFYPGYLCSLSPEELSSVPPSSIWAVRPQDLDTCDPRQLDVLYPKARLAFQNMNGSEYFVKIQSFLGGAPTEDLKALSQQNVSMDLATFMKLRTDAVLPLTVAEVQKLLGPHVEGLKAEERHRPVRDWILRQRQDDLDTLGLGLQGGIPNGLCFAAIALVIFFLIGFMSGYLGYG
Kind of test: binding to transfected AB1-L9 cells.

Test [2] has as its target B3. Kind of test: competition ELISA, antibody 30 ng/ml on coated MSLN-Fc, peptide titrated. The procedure:
(§1) A competition assay was completed using the following peptides: peptide 1 having the sequence CLVLDLSMQEALS (SEQ ID NO: 61) and peptide 2 having the sequence CSMQEALS (SEQ ID NO: 62). An ELISA plate was coated with MSLN(M)-Fc or MSLN(V)-Fc. After overnight incubation, the plates were blocked and washed. The anti-mesothelin stalk antibodies of Example 1 (30 ng/ml) and peptide 1 or peptide 2 were added at different concentrations (100 micrograms/ml to 0.00001 micrograms/ml). After washing, anti-mouse IgG-HRP conjugate were added. The OD was then measured with ELISA.

The target of test [3] is B2. The description is as above. The procedure:
as §1

For test [4], the target named is B1. The description is as above. The procedure: as §1

T1 sequence (Q13421 other isoform, or with tags, fused parts or gaps): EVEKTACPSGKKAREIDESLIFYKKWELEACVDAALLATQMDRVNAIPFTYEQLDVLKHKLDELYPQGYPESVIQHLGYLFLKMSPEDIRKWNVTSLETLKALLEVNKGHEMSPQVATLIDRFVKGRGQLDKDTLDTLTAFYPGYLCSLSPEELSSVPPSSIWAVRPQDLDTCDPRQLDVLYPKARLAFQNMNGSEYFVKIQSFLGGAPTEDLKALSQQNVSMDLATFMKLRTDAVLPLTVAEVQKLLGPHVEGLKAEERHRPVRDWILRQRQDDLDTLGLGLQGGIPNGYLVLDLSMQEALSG

Turning to B1, the binding result in the test with Fc-mesothelin 296-599 is “binds”; in test [1] it was “no binding”.

On to B2, for which the binding result in the test with Fc-mesothelin 296-599 is reported as “binds”; in test [1], “no binding”.

As to B3, the binding result is given as “binds” with Fc-mesothelin 296-599 and “no binding” in test [1].

B4: peptide 2 (CSMQEALS) (peptide)
peptide: CSMQEALS
notes: Mesothelin 592-598 with an added N-terminal cysteine
As for B4, the binding result in test [2], in test [3] and in test [4] was “no binding” each time.

B5: peptide 1 (CLVLDLSMQEALS) (peptide)
peptide: CLVLDLSMQEALS
notes: Mesothelin 587-598 with an added N-terminal cysteine
Take B5: the binding result in test [2], in test [3] and in test [4] was “binds” throughout.
